Test results published in article PMC5477170, “Biochemical characterization of an enantioselective esterase from Brevundimonas sp. LY-2” (Microbial Cell Factories, 2017).

What was measured:
[1] = test system: CCOC(=O)C(C)OC(=O)c1cc(Oc2ccc(C(F)(F)F)cc2Cl)ccc1[N+](=O)[O-]; test: purified protein; details: 50 mM sodium phosphate, pH 7.0, 40 °C
[2] = test system: T1, CCCCCC(=O)Oc1ccc([N+](=O)[O-])cc1; test: p-nitrophenyl ester hydrolysis, Lineweaver-Burk; assay type: biochemical, Brevundimonas sp. LY-2; details: pH and temperature not stated for this assay
T1 construct: signal peptide (residues 1-28) removed; C-terminal His-tag, pET-29a(+); E. coli BL21(DE3); full ORF 306 aa; predicted 29,451 Da, SDS-PAGE ~30 kDa; gel filtration 62 kDa, dimer; N-terminus from primer (M)ATAEP
From the text: (§1) p-nitrophenyl ester hydrolysis, Lineweaver-Burk on LacH

[3] = test system: T2, CCCC(=O)Oc1ccc([N+](=O)[O-])cc1; test: p-nitrophenyl ester hydrolysis, Lineweaver-Burk; assay type: biochemical, Brevundimonas sp. LY-2; details: pH and temperature not stated for this assay
T2 construct: signal peptide (residues 1-28) removed; C-terminal His-tag, pET-29a(+); E. coli BL21(DE3); full ORF 306 aa; predicted 29,451 Da, SDS-PAGE ~30 kDa; gel filtration 62 kDa, dimer; N-terminus from primer (M)ATAEP
From the text: as §1

[4] = test system: T3, CCCCCCCC(=O)Oc1ccc([N+](=O)[O-])cc1; test: p-nitrophenyl ester hydrolysis, Lineweaver-Burk; assay type: biochemical, Brevundimonas sp. LY-2; details: pH and temperature not stated for this assay
T3 construct: signal peptide (residues 1-28) removed; C-terminal His-tag, pET-29a(+); E. coli BL21(DE3); full ORF 306 aa; predicted 29,451 Da, SDS-PAGE ~30 kDa; gel filtration 62 kDa, dimer; N-terminus from primer (M)ATAEP
From the text: as §1

[5] = test system: T4, CC(=O)Oc1ccc([N+](=O)[O-])cc1; test: p-nitrophenyl ester hydrolysis, Lineweaver-Burk; assay type: biochemical, Brevundimonas sp. LY-2; details: pH and temperature not stated for this assay
T4 construct: signal peptide (residues 1-28) removed; C-terminal His-tag, pET-29a(+); E. coli BL21(DE3); full ORF 306 aa; predicted 29,451 Da, SDS-PAGE ~30 kDa; gel filtration 62 kDa, dimer; N-terminus from primer (M)ATAEP
From the text: as §1

Substance: LacH (Brevundimonas sp. LY-2)
- Km [1]: 67 ± 2 µM
- kcat [1]: 0.87 ± 0.09 s⁻¹
- kcat/Km [1]: 12900 M⁻¹ s⁻¹
- Km [2]: 208 ± 12 µM
- kcat [2]: 3.47 ± 0.13 s⁻¹
- kcat/Km [2]: 16700 M⁻¹ s⁻¹
- Km [3]: 185 ± 9 µM
- kcat [3]: 7.48 ± 0.45 s⁻¹
- kcat/Km [3]: 40400 M⁻¹ s⁻¹
- Km [4]: 335 ± 16 µM
- kcat [4]: 0.767 ± 0.06 s⁻¹
- kcat/Km [4]: 2290 M⁻¹ s⁻¹
- Km [5]: 147 ± 8 µM
- kcat [5]: 8.39 ± 0.28 s⁻¹
- kcat/Km [5]: 50100 M⁻¹ s⁻¹
